target: T1, 6xHis-CerM (Cereibacter sphaeroides WS8N) (UniProt Q3J1N9); test: EMSA; conditions: 10 mM Tris pH 7.5, 1 mM EDTA, 0.1 M KCl, 0.1 mM DTT, 5% glycerol, 0.10 mg/mL BSA, 20 min room temperature; 50 ng DNA, 50-200 ng CerM; 4% native gel in TAE pH 7.
T1 sequence: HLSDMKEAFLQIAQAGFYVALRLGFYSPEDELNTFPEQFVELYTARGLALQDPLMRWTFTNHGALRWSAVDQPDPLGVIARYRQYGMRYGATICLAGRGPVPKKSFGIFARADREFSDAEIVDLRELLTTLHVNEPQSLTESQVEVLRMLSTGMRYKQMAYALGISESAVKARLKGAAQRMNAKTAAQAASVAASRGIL

| Sequence | binding |
| --- | --- |
| GCGAATTCCGAGAGGGTTCCACGCTTCATCTTCTCATTTCGCTGGGCAGCCGATTGCGGCGCGAGGAGACCGTGCTGCCGTCCCATTCTCAAGTTGCGCAAAAGGTAAGGCGCTGGAAGGCCCGTCTTTTGAGCATCTGGTCAAAAAAATAAGTTATTACATGGGCTTGATGGGTGATCGGCTCAATCCGCGGACAAACCCTGAGGTTGAGGTGAGAGAGACCCGACTCGCGCCCGTTACCGAAAATGTGCAGATGGGAATTCGC (double strand) [15394 regulatory region (249 bp)] | binds more weakly |
| GACATATCCAAAAAGACAGGTTTGTTTCAAGACAAGTTTTTCTGGATGGAATTGGACGTCGGGCGGGGTTTTGGCACACAATATGCTTGTTATCCGGGCAGGGACAGCTGGAAGATTTACGGAGACATTTCATGAAACATCCCGTCGACGCCCAC (double strand) [14710 fragment H (155 bp)] | binds |
| GTGGGCGTCGACGGGATGTTTCATGAAATGTCTCCGTAAATCTTCCAGCTGTCCCTGCCCGGATAACAAGCATATTGTGTGCCAAAACCCCGCCCGACGTCCAATTCCATCCAGAAAAACTTGTCTTGA (double strand) [14710 fragment C (129 bp)] | no binding |
| CCCGAATATTCGCGACTTGCAAAGTTTCGGCGGCGAATTCGCTGCAAATTGCATTGCAGAATGCAAAAGACCTCAGAGGCGAGTGACGTGTCTCCCGTGCTCCCGAGGGATGATCCACAGCGGCGGACGCCGAACGAACCCAGCTTGTATGAATGGACATATCCAAAAAGACAGGTTTGTTTCAAGACAAG (double strand) [14710 fragment D (191 bp)] | binds |
| CCCGAATATTCGCGACTTGCAAAGTTTCGGCGGCGAATTCGCTGCAAATTGCATTGCAGAATGCAAAAGACCTCAGAGGCGAGTGACGTGTCTCCCGTGCTCCCGAGGGATGATCCACAGCGGCGGACGCCGAACGAACCCAGCTTGTATGAATGGACATATCCAAAAAGACAGGTTTGTTT (double strand) [14710 fragment I (182 bp)] | binds |
| GCGAATTCAAGGTCACGATGATCCAGAAATATCGGCAACTTTAGATTGTATTCAGCTTCGCCTATGCGAGAGTAACTCATGATTAACCATTGGGCATCATTGTAGTTAATACCTAGGGTGGCGATGCGGAGCGCGAGTGATGAGAATACTGCTGGTGGAGGATGATCCGACCACGTCCCGCAGCATCGAATTGATGCTGACTCATGCGAACCTGAACGTCTATTGCACCGATCTCGGCGAGGACGGGATCGATCTGGCCAAGCTCTACGATTACGATCTCATCCTGCTGAGCTCGC (double strand) [ctrA control region (281 bp)] | no binding |
| CCCGAATATTCGCGACTTGCAAAGTTTCGGCGGCGAATTCGCTGCAAATTGCATTGCAGAATGCAAAAGACCTCAGAGGCGAGTGACGTGTCTCCCGTGCTCCCGAGGGATGATCCACAGCGGCGGACGCCGAACGAACCCAGCTTGTATGAATGGACATATC (double strand) [14710 fragment G (163 bp)] | no binding |
| CAGCTTGTATGAATGGACATATCCAAAAAGACAGGTTTGTTTCAAGACAAGTTTTTCTGGATGGAATTGGACGTCGGGCGGGGTTTTGGCACACAATATGCTTGTTATCCGGGCAGGGACAGCTGGAAGATTTACGGAGACATTTCATGAAACATCCCGTCGACGCCCAC (double strand) [14710 fragment B (170 bp)] | binds |
| CAAAAAGACAGGTTTGTTTCAAGACAAGTTTTTCTGGATGGAATTGGACGTCGGGCGGGGTTTTGGCACACAATATGCTTGTTATCCGGGCAGGGACAGCTGGAAGATTTACGGAGACATTTCATGAAACATCCCGTCGACGCCCAC (double strand) [14710 fragment F (147 bp)] | no binding |
